Measured values: PMC3608606, “Arabidopsis DEAD-Box RNA Helicase UAP56 Interacts with Both RNA and DNA as well as with mRNA Export Factors”
One block for each binder: values may come before it.

Experiments:
GST-UAP56 = target: T1, GST-UAP56 (Arabidopsis thaliana (Mouse-ear cress), UniProt Q9LFN6); experiment: GST pull-down; ATP present
T1 chain: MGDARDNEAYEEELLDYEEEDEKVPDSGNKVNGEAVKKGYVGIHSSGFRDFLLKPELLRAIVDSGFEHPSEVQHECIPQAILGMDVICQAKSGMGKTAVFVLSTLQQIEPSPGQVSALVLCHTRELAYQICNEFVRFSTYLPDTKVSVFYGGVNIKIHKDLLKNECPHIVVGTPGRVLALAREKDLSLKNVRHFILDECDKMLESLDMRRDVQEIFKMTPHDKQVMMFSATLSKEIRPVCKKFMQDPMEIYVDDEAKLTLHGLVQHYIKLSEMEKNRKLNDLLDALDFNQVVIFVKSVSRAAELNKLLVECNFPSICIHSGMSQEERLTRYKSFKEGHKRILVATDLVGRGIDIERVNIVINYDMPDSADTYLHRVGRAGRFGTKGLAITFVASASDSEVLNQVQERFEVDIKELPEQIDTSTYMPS

UAP56 [1] = target: T2, UAP56 (Arabidopsis thaliana, UniProt Q56XG6 1-427); experiment: EMSA; 0.25-5 uM protein; single complex; MST: 50 nM labelled oligonucleotide in EMSA buffer (composition cited, ref 44), 28 C, Hill fit; EMSA: 32P probe, PAGE, same cited protocol; salt and pH not given; settings: protein: recombinant; tags: 6xHis (pQE9); label: 32P; blunt
T2 sequence: T1 chain

UAP56 [2] = target: T2, UAP56; experiment: MST; MST: 50 nM labelled oligonucleotide in EMSA buffer (composition cited, ref 44), 28 C, Hill fit; EMSA: 32P probe, PAGE, same cited protocol; salt and pH not given; settings: protein: recombinant; tags: 6xHis (pQE9); label: fluorescent; blunt
[3] = target: T3, Df31 (Decondensation Factor 31) (Drosophila, UniProt O16043 1-183); experiment: MST; up to 411 uM protein; MST: 50 nM labelled oligonucleotide in EMSA buffer (composition cited, ref 44), 28 C, Hill fit; EMSA: 32P probe, PAGE, same cited protocol; salt and pH not given; settings: protein: recombinant; label: fluorescent; blunt
T3 sequence: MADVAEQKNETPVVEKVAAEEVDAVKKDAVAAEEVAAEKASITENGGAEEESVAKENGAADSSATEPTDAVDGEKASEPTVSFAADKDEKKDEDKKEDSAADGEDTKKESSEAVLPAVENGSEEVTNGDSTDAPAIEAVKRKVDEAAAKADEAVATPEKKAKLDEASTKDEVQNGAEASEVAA

UAP56 [4] = target: T2, UAP56; experiment: EMSA; 0.25-5 uM protein; two complexes; less efficient than RNA; MST: 50 nM labelled oligonucleotide in EMSA buffer (composition cited, ref 44), 28 C, Hill fit; EMSA: 32P probe, PAGE, same cited protocol; salt and pH not given; settings: protein: recombinant; tags: 6xHis (pQE9); label: 32P; blunt

binding result (GST-UAP56): no binding
B1: 6xHis-HMGB2 (protein)
chain: MKGAKSKTETRSSKLSVTKKPAKGAGRGKAAAKDPNKPKRPASAFFVFMEDFRETFKKENPKNKSVATVGKAAGDKWKSLSDSEKAPYVAKAEKRKVEYEKNIKAYNKKLEEGPKEDEESDKSVSEVNDEDDAEDGSEEEEDDD

B2: R25ds (dsRNA)
RNA 1: AAAACAAAAUAGCACCGUAAAGCAC
RNA 2: GUGCUUUACGGUGCUAUUUUGUUUU
binding result (UAP56 [1]): binds

B3: R29ds (dsRNA)
RNA 1: CCUCCUUUUUUCUUUUUUUUUUUUUUUCU
RNA 2: AGAAAAAAAAAAAAAAAGAAAAAAGGAGG
Kd (UAP56 [2]): 51.5 ± 5.3 µM

B4: D29ds (dsDNA)
DNA 1: CCTCCTTTTTTCTTTTTTTTTTTTTTTCT
DNA 2: AGAAAAAAAAAAAAAAAGAAAAAAGGAGG
binding result [3]: no binding
Kd (UAP56 [2]): 6.5 ± 0.75 µM

binding result (GST-UAP56): binds
B5: 6xHis-MOS11 (protein)
chain: MATNGEKVTATVVNGGGLSTGENPKKIVDLNTTELDRTDDILDGEVKGFSDSGEKKEETDSNGIGSTAGVDSGDISPVDDIQKKIRRAERFGVSVKLTEEEKRNSRAERFGTVAAAVVNGSEGTKKAEELKRKARADRFGVPSATSTTDKTEEEAKKKARLARFGKETKVDSAEENKRKARALRFSKEASADASSDLPEKQIIGKEAAVSGSAA

B6: D25ds (dsDNA)
DNA 1: AAAACAAAATAGCACCGTAAAGCAC
DNA 2: GTGCTTTACGGTGCTATTTTGTTTT
binding result (UAP56 [4]): binds
